Assay results taken from patent publication US8936925B2, “Reconstitution of 5-enolpyruvylshikimate-3-phosphate synthase activity by fragment complementation” (priority 2004, dated 2015).
Read-outs that look alike come from different tables or passages of the source.

B1: N73: E. coli EPSPS N-terminal fragment, N-terminus to residue 73 (protein, UniProt P0A6D3 1-73, looked up, fragment)
chain: MESLTLQPIARVDGTINLPGSKSVSNRALLLAALAHGKTVLTNLLDSDDVRHMLNALTALGVSYTLSADRTRC
B2: C68: E. coli EPSPS C-terminal fragment, residue 68 to C-terminus (protein, UniProt P0A6D3 68-427, looked up, fragment)
chain: ADRTRCEIIGNGGPLHAEGALELFLGNAGTAMRPLAAALCLGSNDIVLTGEPRMKERPIGHLVDALRLGGAKITYLEQENYPPLRLQGGFTGGNVDVDGSVSSQFLTALLMTAPLAPEDTVIRIKGDLVSKPYIDITLNLMKTFGVEIENQHYQQFVVKGGQSYQSPGTYLVEGDASSASYFLAAAAIKGGTVKVTGIGRNSMQGDIRFADVLEKMGATICWGDDYISCTRGELNAIDMDMNHIPDAAMTIATAALFAKGTTTLRNIYNWRVKETDRLFAMATELRKVGAEVEEGHDYIRITPPEKLNFAEIATYNDHRMAMCFSLVALSDTPVTILDPKCTAKTFPDYFEQLARISQAA
B3: C74: E. coli EPSPS C-terminal fragment, residue 74 to C-terminus (protein, UniProt P0A6D3 74-427, looked up, fragment)
chain: EIIGNGGPLHAEGALELFLGNAGTAMRPLAAALCLGSNDIVLTGEPRMKERPIGHLVDALRLGGAKITYLEQENYPPLRLQGGFTGGNVDVDGSVSSQFLTALLMTAPLAPEDTVIRIKGDLVSKPYIDITLNLMKTFGVEIENQHYQQFVVKGGQSYQSPGTYLVEGDASSASYFLAAAAIKGGTVKVTGIGRNSMQGDIRFADVLEKMGATICWGDDYISCTRGELNAIDMDMNHIPDAAMTIATAALFAKGTTTLRNIYNWRVKETDRLFAMATELRKVGAEVEEGHDYIRITPPEKLNFAEIATYNDHRMAMCFSLVALSDTPVTILDPKCTAKTFPDYFEQLARISQAA
B4: N67: E. coli EPSPS N-terminal fragment, N-terminus to residue 67 (protein, UniProt P0A6D3 1-67, looked up, fragment)
chain: MESLTLQPIARVDGTINLPGSKSVSNRALLLAALAHGKTVLTNLLDSDDVRHMLNALTALGVSYTLS
B5: EPSPS-G96A (protein, UniProt P0A6D3 1-427, looked up, variant G96A)
3-phosphoshikimate …: MESLTLQPIARVDGTINLPGSKSVSNRALLLAALAHGKTVLTNLLDSDDVRHMLNALTALGVSYTLSADRTRCEIIGNGGPLHAEGALELFLGNAATAMRPLAAALCLGSNDIVLTGEPRMKERPIGHLVDALRLGGAKITYLEQENYPPLRLQGGFTGGNVDVDGSVSSQFLTALLMTAPLAPEDTVIRIKGDLVSKPYIDITLNLMKTFGVEIENQHYQQFVVKGGQSYQSPGTYLVEGDASSASYFLAAAAIKGGTVKVTGIGRNSMQGDIRFADVLEKMGATICWGDDYISCTRGELNAIDMDMNHIPDAAMTIATAALFAKGTTTLRNIYNWRVKETDRLFAMATELRKVGAEVEEGHDYIRITPPEKLNFAEIATYNDHRMAMCFSLVALSDTPVTILDPKCTAKTFPDYFEQLARISQAA
B6: EPSPS: E. coli wild type full length 5-enolpyruvylshikimate-3-phosphate synthase (protein, UniProt P0A6D3 1-427, looked up)
chain: MESLTLQPIARVDGTINLPGSKSVSNRALLLAALAHGKTVLTNLLDSDDVRHMLNALTALGVSYTLSADRTRCEIIGNGGPLHAEGALELFLGNAGTAMRPLAAALCLGSNDIVLTGEPRMKERPIGHLVDALRLGGAKITYLEQENYPPLRLQGGFTGGNVDVDGSVSSQFLTALLMTAPLAPEDTVIRIKGDLVSKPYIDITLNLMKTFGVEIENQHYQQFVVKGGQSYQSPGTYLVEGDASSASYFLAAAAIKGGTVKVTGIGRNSMQGDIRFADVLEKMGATICWGDDYISCTRGELNAIDMDMNHIPDAAMTIATAALFAKGTTTLRNIYNWRVKETDRLFAMATELRKVGAEVEEGHDYIRITPPEKLNFAEIATYNDHRMAMCFSLVALSDTPVTILDPKCTAKTFPDYFEQLARISQAA
modifications: full-length
notes: E. coli wild type full length 5-enolpyruvylshikimate-3-phosphate synthase
B7: N383: E. coli EPSPS N-terminal fragment, N-terminus to residue 383 (protein, UniProt P0A6D3 1-383, looked up, fragment)
chain: MESLTLQPIARVDGTINLPGSKSVSNRALLLAALAHGKTVLTNLLDSDDVRHMLNALTALGVSYTLSADRTRCEIIGNGGPLHAEGALELFLGNAGTAMRPLAAALCLGSNDIVLTGEPRMKERPIGHLVDALRLGGAKITYLEQENYPPLRLQGGFTGGNVDVDGSVSSQFLTALLMTAPLAPEDTVIRIKGDLVSKPYIDITLNLMKTFGVEIENQHYQQFVVKGGQSYQSPGTYLVEGDASSASYFLAAAAIKGGTVKVTGIGRNSMQGDIRFADVLEKMGATICWGDDYISCTRGELNAIDMDMNHIPDAAMTIATAALFAKGTTTLRNIYNWRVKETDRLFAMATELRKVGAEVEEGHDYIRITPPEKLNFAEIATYN
B8: C32: E. coli EPSPS C-terminal fragment, residue 32 to C-terminus (protein, UniProt P0A6D3 32-427, looked up, fragment)
chain: AALAHGKTVLTNLLDSDDVRHMLNALTALGVSYTLSADRTRCEIIGNGGPLHAEGALELFLGNAGTAMRPLAAALCLGSNDIVLTGEPRMKERPIGHLVDALRLGGAKITYLEQENYPPLRLQGGFTGGNVDVDGSVSSQFLTALLMTAPLAPEDTVIRIKGDLVSKPYIDITLNLMKTFGVEIENQHYQQFVVKGGQSYQSPGTYLVEGDASSASYFLAAAAIKGGTVKVTGIGRNSMQGDIRFADVLEKMGATICWGDDYISCTRGELNAIDMDMNHIPDAAMTIATAALFAKGTTTLRNIYNWRVKETDRLFAMATELRKVGAEVEEGHDYIRITPPEKLNFAEIATYNDHRMAMCFSLVALSDTPVTILDPKCTAKTFPDYFEQLARISQAA
B9: N371: E. coli EPSPS N-terminal fragment, N-terminus to residue 371 (protein, UniProt P0A6D3 1-371, looked up, fragment)
chain: MESLTLQPIARVDGTINLPGSKSVSNRALLLAALAHGKTVLTNLLDSDDVRHMLNALTALGVSYTLSADRTRCEIIGNGGPLHAEGALELFLGNAGTAMRPLAAALCLGSNDIVLTGEPRMKERPIGHLVDALRLGGAKITYLEQENYPPLRLQGGFTGGNVDVDGSVSSQFLTALLMTAPLAPEDTVIRIKGDLVSKPYIDITLNLMKTFGVEIENQHYQQFVVKGGQSYQSPGTYLVEGDASSASYFLAAAAIKGGTVKVTGIGRNSMQGDIRFADVLEKMGATICWGDDYISCTRGELNAIDMDMNHIPDAAMTIATAALFAKGTTTLRNIYNWRVKETDRLFAMATELRKVGAEVEEGHDYIRITPP
B10: N376: E. coli EPSPS N-terminal fragment, N-terminus to residue 376 (protein, UniProt P0A6D3 1-376, looked up, fragment)
chain: MESLTLQPIARVDGTINLPGSKSVSNRALLLAALAHGKTVLTNLLDSDDVRHMLNALTALGVSYTLSADRTRCEIIGNGGPLHAEGALELFLGNAGTAMRPLAAALCLGSNDIVLTGEPRMKERPIGHLVDALRLGGAKITYLEQENYPPLRLQGGFTGGNVDVDGSVSSQFLTALLMTAPLAPEDTVIRIKGDLVSKPYIDITLNLMKTFGVEIENQHYQQFVVKGGQSYQSPGTYLVEGDASSASYFLAAAAIKGGTVKVTGIGRNSMQGDIRFADVLEKMGATICWGDDYISCTRGELNAIDMDMNHIPDAAMTIATAALFAKGTTTLRNIYNWRVKETDRLFAMATELRKVGAEVEEGHDYIRITPPEKLNF

Tests used:
[1] = tested on: aroA gene-mutant E. coli strain AB2829; assay: In vivo complementation: growth on solid M63 restrictive medium; type: cell-based; set-up: key: −: failed to grow; +: able to grow; details: for complementation condition, N-terminal: N-terminal fragment alone; for complementation condition, C-terminal: C-terminal fragment alone
Excerpt: The pKU2100 plasmid constructed as described above and corresponding pACYC1184 plasmid were introduced separately or together into the strain AB2829 deficient in E. coli aroA gene. Then, the strain was streaked on solid M63 restrictive medium and cultured overnight to determine the growth.
In order to test if EPSPS achieves fragment complementation after in vivo expression, genes encoding EPSPS N-terminal peptides were constructed into pACYC184, and genes encoding EPSPS C-terminal peptides were constructed into pBR322 (see the section Materials and Methods for the detailed construction method). Afterwards, these plasmids were introduced into aroA gene-mutant E. coli strain AB2829. EPSPS activity of the protein fragments encoded by these genes was determined by the growth of the strains on M63 restrictive medium.
The pACYC184 and pBR322 plasmids are able to be expressed in the same bacterial cell since they have replicons p15A and ColE1 respectively. In this regard, a pACYC184 plasmid was co-introduced into aroA gene-mutant E. coli strain AB2829 together with a corresponding pKU2100 plasmid, wherein the N-terminal peptide encoded by the pACYC184 plasmid and C-terminal peptide encoded by the pKU2100 plasmid are the two fragments divided at the same site from EPSPS. The resulting strains are streaked on M63 restrictive medium, and cultured at 37° C.
The pBR322 plasmids constructed in section 3.5 a and their relevant pACYC1184 plasmids constructed in section 3.5 b were introduced respectively or together into E. coli strain AB2829 deficient in aroA gene. Then the strains were streaked on solid M63 restrictive medium and cultured overnight to test the growth.

[2] = tested on: aroA-mutant E. coli strain AB2829; assay: Growth in M63 restrictive media with different concentrations of glyphosate; type: cell-based
Experimental: aroA gene-mutant E. coli strains AB 2829 carrying plasmid pKU2004, pKU2006 or pKU2007 were inoculated in liquid LB medium and incubated overnight. A sample of the culture was centrifuged at 4000 rpm for 3 min and re-suspended in 0.9% physiological saline. After a further centrifugation, the supernatant was discarded. The pellets were re-suspended in physiological saline and inoculated at an initial concentration of OD600 0.04 into a liquid media comprising 0, 50 or 100 mM glyphosate for overnight culture at 37° C. Absorption (OD600) was measured at intervals.
In order to test whether the mutated EPSPS fragments perform functional complementation in vivo, plasmid pKU2105 and pKU2333 were constructed, which encode the N-terminal fragments N218-G96A and N227-G96A of E. coli EPSPS, respectively. They were introduced into aroA-mutant E. coli strain AB2829 (aroA−, from Yale University) together with their corresponding plasmids encoding C219 and C228 respectively. The growth was detected in the M63 restrictive media with different concentrations of glyphosate.

EPSPS = tested on: EPSPS
Experimental: (1) 95 μl substrate (50 mmol/L HEPES buffer (pH 7.5), 1 mmol/L PEP, 1 mmol/L S3P) was pre-warmed at 28 °C in an incubator for 5 min.
(2) 5 μl enzyme was added and the reaction was kept in an incubator at 28 °C for 1-20 min (depends on the enzyme activity). After that, 800 μl MG/AM/NP was added and the reaction was mixed for 1 min.
(3) 100 μl 34% sodium citrate was added and the reaction was mixed for half an hour. The OD660 was measured on a spectrometer.
The enzyme activities and the Km values to substrates of these three proteins were measured.

Molecule	complementation condition, N-terminal [1]	complementation condition, C-terminal [1]	further results
B1	−		
B2		−	
B3		−	
B4	−		
B5			growth in M63 medium containing 50 mM glyphosate [2]: grew well; growth in M63 medium containing 100 mM glyphosate ([2]; 100 mM glyphosate): still grew well
B6			specific activity (EPSPS; PEP and S3P both 1.0 mM): 44 ± 2 mol/min/mg; Km (EPSPS; read-out: Km [PEP], S3P 1 mM, PEP varied from 50 to 200 μM): 14 ± 3 µM; Km (EPSPS; read-out: Km [S3P], PEP 1 mM, S3P varied from 50 to 200 μM): 45 ± 1 µM; growth in M63 medium containing 50 mM glyphosate [2]: inhibited from growth
B7	−		
B8		−	
B9	−		
B10	−		
